Measurements reported in US20260022175A1 (Chugai, published 2026).
Numbering of substitutions follows the chain as printed. Values belong to the binder of their own block, whether it stands above or below them.

Legend:
[1] = biological target: T1, mCTLA4-His (mouse CTLA4 extracellular region linked with a His-tag) (mouse, UniProt P09793 36-161); test: SPR 37C, ATP 10 µM
[2] = biological target: T1, mCTLA4-His (mouse CTLA4 extracellular …); test: SPR 37C, ATP 100 µM
[3] = biological target: T2, human CTLA4 (human); test: SPR Biacore T200, 37C, antibody captured, ATP 1 uM
T2 construct: also called hCTLA4; hCTLA4-His-BAP

[4] = biological target: T2, human CTLA4; test: SPR Biacore T200, 37C, antibody captured, ADP 10 uM;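 also: antibodies held on a Protein G CM3 chip, human CTLA4 as analyte in ACES pH 7.4 buffer, rates from a global 1:1 Langmuir fit, Kd from rates or steady state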
[5] = biological target: T2, human CTLA4; test: SPR Biacore T200, 37C, antibody captured, ATP 10 uM
[6] = biological target: T2, human CTLA4; test: SPR Biacore T200, 37C, antibody captured, AMP 10 uM
[7] = biological target: T2, human CTLA4; test: SPR Biacore T200, 37C, antibody captured, no ATP, steady state model
[8] = biological target: T2, human CTLA4; test: SPR Biacore T200, 37C, antibody captured, ATP 10 uM; remark: listed apart in the source
[9] = biological target: T3, cynomolgus monkey CTLA4 (CyCTLA4-His-BAP) (cynomolgus monkey); test: as above
[10] = biological target: T4, mouse CTLA4 extracellular region linked with a His-tag (mCTLA4-His) (mouse, UniProt P09793 36-161); test: as above
[11] = biological target: T2, human CTLA4; test: SPR Biacore T200, 37C, antibody captured, ATP 100 uM
[12] = biological target: T3, cynomolgus monkey CTLA4 …; test: as above
[13] = biological target: T4, mouse CTLA4 extracellular region linked …; test: as above
[14] = biological target: T2, human CTLA4; test: SPR Biacore T200, 37C, antibody captured, ATP 10 uM; remark: listed apart in the source
[15] = biological target: T2, human CTLA4; test: SPR Biacore T200, 37C, antibody captured, ATP 100 uM; remark: listed apart in the source
[16] = biological target: T2, human CTLA4; test: SPR Biacore T200, 37C, antibody captured, ATP 10 uM; remark: listed apart in the source
[17] = biological target: T2, human CTLA4; test: SPR Biacore T200, 37C, antibody captured, no ATP, steady state model; remark: listed apart in the source
[18] = biological target: T2, human CTLA4; test: SPR Biacore T200, 37C, antibody captured, ATP 1 uM; remark: listed apart in the source
[19] = biological target: T3, cynomolgus monkey CTLA4 …; test: SPR Biacore T200, 37C, antibody captured, ATP 1 uM
[20] = biological target: T4, mouse CTLA4 extracellular region linked …; test: SPR Biacore T200, 37C, antibody captured, ATP 1 uM
[21] = biological target: T5, hCTLA4-His-BAP (human CTLA4 extracellular region with C-terminal His-tag and BAP-tag) (human, biotin on the BAP-tag); test: SPR 37C, ATP 10 µM
T5 construct: also called hCTLA4-His-Biotin

[22] = biological target: T5, hCTLA4-His-BAP (human CTLA4 …); test: SPR 37C, ATP 10 µM; remark: listed apart in the source
[23] = biological target: T5, hCTLA4-His-BAP (human CTLA4 …); test: SPR 37C, ATP 100 µM
[24] = biological target: T5, hCTLA4-His-BAP (human CTLA4 …); test: SPR 37C, no ATP, steady state model
[25] = biological target: T6, Abatacept (human IgG1 constant region fused to hCTLA4) (human, UniProt P16410 38-161, biotinylated by amine coupling); test: phage ELISA
T6 construct: bought drug; also called Abatacept-Biotin; biotin-labeled abatacept
T6 sequence (looked up): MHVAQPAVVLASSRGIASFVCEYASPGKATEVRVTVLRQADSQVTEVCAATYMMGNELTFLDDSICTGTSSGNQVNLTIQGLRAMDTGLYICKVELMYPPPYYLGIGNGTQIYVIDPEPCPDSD

T3 sequence (chain, as listed by the source limits assumed): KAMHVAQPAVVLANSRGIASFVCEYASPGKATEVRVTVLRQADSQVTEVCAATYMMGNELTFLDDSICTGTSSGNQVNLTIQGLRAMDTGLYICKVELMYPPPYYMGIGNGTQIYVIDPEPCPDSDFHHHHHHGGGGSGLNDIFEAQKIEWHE
T5 sequence (chain, as listed by the source limits assumed): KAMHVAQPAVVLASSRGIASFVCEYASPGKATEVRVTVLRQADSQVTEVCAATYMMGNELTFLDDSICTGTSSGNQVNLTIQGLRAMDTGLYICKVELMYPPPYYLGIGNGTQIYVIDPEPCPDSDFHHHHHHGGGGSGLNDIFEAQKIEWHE

- Kd [1]: 110 nM
- Kd [2]: 110 nM
B1: hUH02-G1d/hUL01-k0 (antibody, human IgG1, kappa, V domains shown)
VH: QVQLQESGPGLVKPSETLSLTCTVSGYSISSGYGWNWIRQPPGKGLEWIGFIYYEGSTYYNPSIKSRISITRDTSKNQFFLQVNSVTTEDTATYYCARQTGYFDYWGQGTLVTVSS
VL: DIVMTQSPDSLAVSLGERATINCKSSQSLFNSNAKTNYLNWYQQKPGQPPKLLIYYASTRHTGVPDRFSGSGSGTDFTLTISSLQAEDVAVYYCQQWYDYPYTFGAGTKVEIKR
notes: also called anti-mouse CTLA4 antibody

- Kd [3]: 82 nM
- Kd [4]: 25 nM
- koff [4]: 0.0038 s⁻¹
- kon [4]: 160000 M⁻¹ s⁻¹
- Kd [5]: 17 nM
- koff [5]: 0.0019 s⁻¹
- kon [5]: 110000 M⁻¹ s⁻¹
- Kd [6]: 79 nM
- koff [6]: 0.012 s⁻¹
- kon [6]: 150000 M⁻¹ s⁻¹
- Kd [7]: 2400 nM
- Kd [8]: 14 nM
- Kd [9]: 26 nM
- Kd [10]: 32 nM
- Kd [11]: 4.6 nM
- Kd [12]: 12 nM
- Kd [13]: 12 nM
- Kd [14]: 19 nM
- Kd [15]: 5.4 nM
- Kd [16]: 15 nM
- Kd [17]: 3200 nM
- Kd [18]: 72 nM
- Kd [19]: 140 nM
- Kd [20]: 210 nM
B2: 04H1389-G1m/04L1305-k0MT (antibody, human IgG1, kappa)
heavy: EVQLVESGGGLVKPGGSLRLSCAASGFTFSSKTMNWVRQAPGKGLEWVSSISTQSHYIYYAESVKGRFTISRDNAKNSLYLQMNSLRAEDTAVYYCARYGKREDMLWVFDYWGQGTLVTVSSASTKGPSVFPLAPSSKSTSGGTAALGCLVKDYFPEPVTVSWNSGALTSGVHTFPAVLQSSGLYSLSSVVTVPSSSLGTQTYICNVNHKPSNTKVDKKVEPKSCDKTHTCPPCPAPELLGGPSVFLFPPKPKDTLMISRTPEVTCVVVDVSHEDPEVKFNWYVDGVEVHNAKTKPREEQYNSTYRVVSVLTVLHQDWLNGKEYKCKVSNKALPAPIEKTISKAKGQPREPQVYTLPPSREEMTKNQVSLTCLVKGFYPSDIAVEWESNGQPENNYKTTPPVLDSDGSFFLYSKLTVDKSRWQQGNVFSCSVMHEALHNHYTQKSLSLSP
light: DIVMTQSPLSLPVTPGEPASISCDGPSTGVGDYNYVHWYQQKPGQAPRLLIYFTSKKPSGVPDRFSGSGSGTDFTLKISRVEAEDVGVYYCQTYAAPLGPMFGQGTKLEIKRTVAAPSVFIFPPSDEQLKSGTASVVCLLNNFYPREAKVQWKVDNALQSGNSQESVTEQDSKDSTYSLSSTLTLSKADYEKHKVYACEVTHQGLSSPVTKSFNRGEC

- binding result [25]: binds
B7: ABAM001 (antibody, human IgG1, V domains shown)
VH: EVQLVESGGDLVKPGGGLRLSCAASGFTFSSYTMHWVRQAPGKGLEWVSSISSRSRYKYYADSVKGRFTISRDNAKNSLYLQMNSLRAEDTAVYYCARFGIKNKRNWVLDYWGQGTLVTVSS
VL: QSALTQPPSASGSPGQTVTISCTGTSTDVGAYNYVSWYQQHPGKAPKLMIYQVSKRPSGVPDRFSGSKSGNTASLTVSGLQAEDEADYFCSLYTTRPQLAFGGGTKLTVL
notes: also called ABADh11-4_020

- binding result [25]: binds
B8: ABAM003 (antibody, human IgG1, V domains shown)
VH: B7 VH with S31G, K58A, Y59S, K104H, R105L, L109F
VL: QSALTQPPSASGSPGQTVTISCTGTSSDVGDYNYVSWYQQHPGKAPKLMIYGVSKRPSGVPDRFSGSKSGNTASLTVSGLQAEDEADYFCSTVSTSHSPVFGGGTKLTVL
notes: also called ABADh12-4_014

Second part, the binder before the results:

B3: 04H1389-G1m/04L1086-lam1 (antibody, human IgG1, lambda, V domains shown)
VH: EVQLVESGGGLVKPGGSLRLSCAASGFTFSSKTMNWVRQAPGKGLEWVSSISTQSHYIYYAESVKGRFTISRDNAKNSLYLQMNSLRAEDTAVYYCARYGKREDMLWVFDYWGQGTLVTVSS
VL: QSALTQPPSASGSPGQTVTISCDGPSTGVGDYNYVHWYQQHPGKAPKLMIYFTSKKPSGVPDRFSGSKSGNTASLTVSGLQAEDEADYFCQTYAAPLGPMFGGGTKLTVLG
- fold enhancement of binding ability against parent 04H1207-G1m/04L1086-lam1 [21]: ~10 fold

B4: 04H1077-G1m/04L1305-k0MT (antibody, human IgG1, kappa, V domains shown)
VH: B3 VH with G10D, S17G, K32R, Q54R, H56G
VL: DIVMTQSPLSLPVTPGEPASISCDGPSTGVGDYNYVHWYQQKPGQAPRLLIYFTSKKPSGVPDRFSGSGSGTDFTLKISRVEAEDVGVYYCQTYAAPLGPMFGQGTKLEIKR
- Kd [22]: 360 nM
- Kd [23]: 56 nM
- Kd [24]: 6500 nM

B5: 04H1389-G1m/04L1086-lam1 (antibody, human IgG1, lambda, V domains shown)
VH: B3 VH
VL: B3 VL
- Kd [3]: 180 nM
- Kd [4]: 44 nM
- koff [4]: 0.0061 s⁻¹
- kon [4]: 140000 M⁻¹ s⁻¹
- Kd [5]: 32 nM
- koff [5]: 0.0032 s⁻¹
- kon [5]: 100000 M⁻¹ s⁻¹
- Kd [6]: 130 nM
- koff [6]: 0.018 s⁻¹
- kon [6]: 140000 M⁻¹ s⁻¹
- Kd [7]: 5700 nM
- Kd [14]: 43 nM
- Kd [15]: 21 nM
- Kd [16]: 37 nM
- Kd [17]: 5100 nM

B6: 04H1382-G1m/04L1086-lam1 (antibody, human IgG1, lambda, V domains shown)
VH: B3 VH with E62R
VL: B3 VL
- fold enhancement of binding ability against parent 04H1208-G1m/04L1086-lam1 [21]: ~10 fold
